Experimental data taken from article PMC5780496.

Molecular target: HACE1 (UniProt Q8IYU2)
Assay: co-IP of differently tagged HACE1
Conditions: reference: HACE1 WT with PAK1(K141A); sites S385

Sequence of HACE1 (Q8IYU2 whole entry, stated change not applied): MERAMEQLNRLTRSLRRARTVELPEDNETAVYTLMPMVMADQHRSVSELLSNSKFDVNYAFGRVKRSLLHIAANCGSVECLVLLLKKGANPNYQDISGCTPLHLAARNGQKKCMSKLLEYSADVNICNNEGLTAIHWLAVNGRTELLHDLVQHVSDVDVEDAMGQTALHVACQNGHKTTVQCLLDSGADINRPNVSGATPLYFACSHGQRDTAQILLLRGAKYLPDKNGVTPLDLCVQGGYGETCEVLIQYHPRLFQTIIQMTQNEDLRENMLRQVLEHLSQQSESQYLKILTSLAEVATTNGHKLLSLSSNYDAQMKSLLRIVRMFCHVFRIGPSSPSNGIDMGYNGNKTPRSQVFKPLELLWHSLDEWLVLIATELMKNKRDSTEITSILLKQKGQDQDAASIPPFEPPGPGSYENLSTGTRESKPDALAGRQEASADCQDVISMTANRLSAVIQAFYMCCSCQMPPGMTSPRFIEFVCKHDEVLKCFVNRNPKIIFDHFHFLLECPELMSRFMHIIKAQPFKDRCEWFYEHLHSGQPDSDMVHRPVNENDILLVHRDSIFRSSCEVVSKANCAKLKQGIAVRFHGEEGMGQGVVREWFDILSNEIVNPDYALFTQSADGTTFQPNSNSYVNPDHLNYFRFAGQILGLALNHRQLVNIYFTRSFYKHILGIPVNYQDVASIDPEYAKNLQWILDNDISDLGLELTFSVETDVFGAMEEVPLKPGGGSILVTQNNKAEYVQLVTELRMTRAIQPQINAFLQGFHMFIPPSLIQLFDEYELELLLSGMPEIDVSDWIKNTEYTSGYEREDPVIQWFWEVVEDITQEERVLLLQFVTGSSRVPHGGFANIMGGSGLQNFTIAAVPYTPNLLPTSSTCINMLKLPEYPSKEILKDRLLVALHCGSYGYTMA

HACE1 (from UniProt Q8IYU2) HACE1 S385A with PAK1(K141A)
binding against the reference: weaker
